Biological target: GFP_CaV2.2-HA (rabbit) (UniProt Q05152)
Test: co-IP; competition: tsA-201 cells transfected with GFP_CaV2.2-HA, β1b, α2δ-1 and (TASK3, Cachd1 or a 1:1 mix of both) in a ratio of 2:1:2:1; IP with anti-GFP Ab, 300 mM NaCl, digitonin; α2δ-1 in IP/input normalised to no Cachd1

Chain of UniProt Q05152 (Q05152 whole entry): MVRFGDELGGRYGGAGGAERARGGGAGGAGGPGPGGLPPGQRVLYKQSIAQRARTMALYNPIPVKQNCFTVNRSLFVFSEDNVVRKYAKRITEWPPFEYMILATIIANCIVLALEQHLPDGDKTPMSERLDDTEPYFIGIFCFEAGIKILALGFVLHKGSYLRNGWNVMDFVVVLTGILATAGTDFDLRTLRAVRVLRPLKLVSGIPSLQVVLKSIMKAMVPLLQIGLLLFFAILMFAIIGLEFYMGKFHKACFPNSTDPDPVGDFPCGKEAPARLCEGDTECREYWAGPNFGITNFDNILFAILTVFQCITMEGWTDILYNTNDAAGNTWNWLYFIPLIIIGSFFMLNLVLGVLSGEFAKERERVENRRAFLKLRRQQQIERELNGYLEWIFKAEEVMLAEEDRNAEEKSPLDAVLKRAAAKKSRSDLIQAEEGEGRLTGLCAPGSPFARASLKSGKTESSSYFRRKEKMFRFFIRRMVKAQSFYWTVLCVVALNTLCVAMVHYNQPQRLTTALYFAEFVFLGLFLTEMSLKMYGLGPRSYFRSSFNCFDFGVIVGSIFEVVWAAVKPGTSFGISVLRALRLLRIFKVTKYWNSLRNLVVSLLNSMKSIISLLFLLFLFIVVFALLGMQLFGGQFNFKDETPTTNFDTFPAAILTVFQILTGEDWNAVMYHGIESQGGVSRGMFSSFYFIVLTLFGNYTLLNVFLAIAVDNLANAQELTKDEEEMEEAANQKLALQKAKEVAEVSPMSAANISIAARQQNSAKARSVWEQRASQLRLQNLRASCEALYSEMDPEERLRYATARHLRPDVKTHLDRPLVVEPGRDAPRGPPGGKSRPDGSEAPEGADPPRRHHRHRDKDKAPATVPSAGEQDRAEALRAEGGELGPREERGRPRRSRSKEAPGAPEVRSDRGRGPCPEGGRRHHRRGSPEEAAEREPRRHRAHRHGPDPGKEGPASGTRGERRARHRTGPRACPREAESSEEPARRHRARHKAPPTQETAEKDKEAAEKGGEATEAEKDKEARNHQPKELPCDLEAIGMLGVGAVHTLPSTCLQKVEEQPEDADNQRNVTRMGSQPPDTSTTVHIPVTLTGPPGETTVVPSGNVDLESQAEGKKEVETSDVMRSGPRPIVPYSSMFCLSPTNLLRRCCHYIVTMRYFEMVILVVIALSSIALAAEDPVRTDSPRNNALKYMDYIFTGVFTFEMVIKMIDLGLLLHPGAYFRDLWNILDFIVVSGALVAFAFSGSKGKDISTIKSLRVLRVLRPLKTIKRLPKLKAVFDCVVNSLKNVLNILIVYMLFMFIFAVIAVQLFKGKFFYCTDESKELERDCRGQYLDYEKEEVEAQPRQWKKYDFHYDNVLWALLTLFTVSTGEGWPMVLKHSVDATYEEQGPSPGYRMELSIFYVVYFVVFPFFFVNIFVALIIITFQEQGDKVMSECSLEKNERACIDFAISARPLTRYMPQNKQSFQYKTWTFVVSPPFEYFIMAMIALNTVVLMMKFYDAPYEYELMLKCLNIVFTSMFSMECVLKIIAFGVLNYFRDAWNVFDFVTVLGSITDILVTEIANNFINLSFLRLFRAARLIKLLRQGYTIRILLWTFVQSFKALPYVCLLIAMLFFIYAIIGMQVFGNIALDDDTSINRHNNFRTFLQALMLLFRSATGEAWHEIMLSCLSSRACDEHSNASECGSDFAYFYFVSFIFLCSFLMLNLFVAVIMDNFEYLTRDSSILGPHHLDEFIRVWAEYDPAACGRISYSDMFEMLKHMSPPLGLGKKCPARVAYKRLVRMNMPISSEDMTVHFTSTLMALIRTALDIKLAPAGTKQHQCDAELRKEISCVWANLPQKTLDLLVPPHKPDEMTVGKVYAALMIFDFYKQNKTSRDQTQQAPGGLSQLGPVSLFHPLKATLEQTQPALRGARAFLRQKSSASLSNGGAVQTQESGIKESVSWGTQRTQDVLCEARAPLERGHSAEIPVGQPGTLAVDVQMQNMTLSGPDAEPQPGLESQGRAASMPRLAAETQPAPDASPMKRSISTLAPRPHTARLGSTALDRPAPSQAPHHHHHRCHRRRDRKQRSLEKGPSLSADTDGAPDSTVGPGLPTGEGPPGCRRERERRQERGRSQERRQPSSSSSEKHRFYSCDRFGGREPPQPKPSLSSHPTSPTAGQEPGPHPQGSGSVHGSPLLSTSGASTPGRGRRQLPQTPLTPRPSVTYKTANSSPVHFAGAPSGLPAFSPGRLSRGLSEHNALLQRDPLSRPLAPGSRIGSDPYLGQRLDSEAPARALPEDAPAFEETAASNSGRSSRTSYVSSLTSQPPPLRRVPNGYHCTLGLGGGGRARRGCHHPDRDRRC

percent reduction of the coIP of α2δ-1 with GFP CaV2.2 (1× Cachd1): 71%
Substance: Cachd1 (natural protein)

Source: publication PMC6231325
